According to paper doi:10.1101/2024.10.16.618688:
Values joined by “and” are separate entries in the source; they are usually repeats but may differ in a detail not shown here. Identical values can stand only once.

How the values were obtained:
[1] = target: NRX1β ECD (aa 81 - 311) labeled with Alexa Fluorophore 488 (mouse) (UniProt P0DI97); test: fluorescence polarisation
[2] = target: full-length neuroligin 2 (NL2), wild type (mouse) (UniProt Q69ZK9); test: cryo-EM structure

Substance	Kd [1] [µM]	stoichiometry N (NRX1β per NL2 dimer) [2]	stoichiometry N [2]
NL2 H279Y G282K mutant (from UniProt Q69ZK9 170-836) (natural protein)	0.3		
full-length neurexin 1β (NRX1β), wild type (from UniProt P0DI97 47-468) (natural protein)		2 and 1	
full-length neuroligin 2 (NL2), wild type (from UniProt Q69ZK9 15-836) (natural protein)	6		2
